Results reported in the RNAGym collection of RNA variant scans (doi:10.1073/pnas.2313332121).

B1: TPR t1 (parent)
chain: GACCAAUCUGCCCUCAGAGCUCGAGAACAUCUUCGGAUGCAGAGGAGGCAGGCUUCGGUGGCGCGAUAGCGCCAACGUCCUCAACCUCCAAUGCAUCCCACCACAUGAUGAUGCCUGAAGAGCCUUGGUUUUUUG

Variants of: B1
Experiment: polymerase ribozyme fitness, log enrichment relative to wild type (log ratio); higher = more active; in vitro selection for triplet polymerase activity
Procedure, shortened: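 Frozen incubation at −7 °C formed the core of a single, triplicate in vitro selection round applied to PCR-built, transcribed mutant libraries of each subunit of a heterodimeric triplet polymerase ribozyme. Extended constructs were gel-excised, captured with streptavidin beads and amplified by RT-PCR, and input and output libraries were Illumina-sequenced with a filter of ≥10 input reads and ≥1 read per output. Fitness is the logarithm of genotype enrichment relative to wild-type enrichment, with inverse-variance-weighted replicate averaging, and the logarithm is base 2.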

| Variant | polymerase ribozyme fitness (log ratio) |
| --- | --- |
| C12A A29U C56U | -3.33 |
| C73A G120U A121C | 0.179 |
| C15U G42A G48A C79U A105C U112A G113U C124A | -4.71 |
| A16U C22U | -3.56 |
| G35U G47A | -5.64 |
| A29G C73U C114A | -1.97 |
| C11U G52A G57U A95U | -1.32 |
| C3G C72G | -2.06 |
| C49U C73G A121C | 0.163 |
| G45A A95C A111U | -3.67 |
| C15U A16U G57A C82U U112A | -5.23 |
| C15G C62U C79A A95G G117U | -1.98 |
| G44A C79A | -3.11 |
| C49A G57U G127U | -1.6 |
| A6G A66U C73G A75U C80U G120U U129G | -4.99 |
| C40A C70U C124U | -0.171 |
| C49G C70U | -1.3 |
| C8U C72G U92A C123A | -2.13 |
| A6C G77A | -0.571 |
| A43G G61U C94G A103U C114G | -5.99 |
| U21G G23U A27G A83C U112G | -7.42 |

| Variant | polymerase ribozyme fitness (log ratio) |
| --- | --- |
| C70U U87C | 0.738 |
| G10U C34G C102U | -6.42 |
| C73U C115G | -1.77 |
| U9A C73A C104U U130G G135C | 0.682 |
| C40A G71A G113A | -3.05 |
| G60A A103C A111C | -4.91 |
| C20A C64U U78C U96A C102G C114A | -6.83 |
| C8G C13G A37C G52C C86U | -2.49 |
| C8G G117A | 0.795 |
| A2G C11A C56G | -1.58 |
| C8G C72G C82A C102U | -1.73 |
| G25U G39U U106A C114U | -5.15 |
| C49A C70G U130C | -3.2 |
| A6U C8G C34U C53U C82U A84C | -4.3 |
| U7A A66G U87C C94U G110U | -2.5 |
| C28G C53U G93A | -5.35 |
| A5U A43G C102A U116C | -5.9 |
| C8U G60C | 0.253 |
| C11G C53U G61A G107A | -5.9 |
| G51C C80G G135U | -1.27 |
| C13U C72A C101A C114A | -1.86 |

| Variant | polymerase ribozyme fitness (log ratio) |
| --- | --- |
| A95C C101U U106A | -0.358 |
| C73A G128U | -2.16 |
| U59A C62A A100C U106A C124G | -0.96 |
| G23U G69C G120A | -5.9 |
| G17U G42U G45A G69C U81G C86A C94U C99A A121C | -6.32 |
| G52U C56G C89U | -1.53 |
| C8U C49U C56U C70U C98A | -6.59 |
| A37U G47A A68G C80A | -6.59 |
| C20U C62A | -2.35 |
| A50G U78G | 0.0351 |
| C4A G61U | -1.15 |
| G51A G93U | -4.23 |
| U78A C115U | -1.41 |
| G25U G69U C102U A121U | -5.66 |
| C11G A27U G47C A83U | -3.57 |
| C34G A43C G60U | -6.09 |
| C79U C80A | -3.65 |
| U78C C80U | -0.608 |
| U32C G69C | -2.01 |
| A41U A100C U106A U132C | -2.89 |
| G69C C89G C123A G135U | -4.06 |

| Variant | polymerase ribozyme fitness (log ratio) |
| --- | --- |
| A24G C102U | -3.7 |
| C12U A27G G47A G51A G58A G61C A103G A121G | -7.4 |
| C40G G63U G120A | -0.497 |
| G45U U130G | -2.66 |
| A16G C64U G77U | -1.55 |
| C8A C40U G61U U78A C80G A100C | -6.33 |
| C8G C13A | 0.587 |
| A68C A84U U112G G117C | -7.28 |
| C40G G44A C98U | -5.49 |
| G57A C70A | -3.43 |
| C12U U132A | 0.262 |
| C3A G42A G57C G107U C114U G128U U130C | -4.37 |
| C56U G110U C114U U125A | -3.23 |
| G52C C53G G120U | -2.13 |
| C4A C70G | -3.6 |
| C8G G44C A84C C115U | -1.3 |
| G42C A50C A105G | -5.66 |
| G19A G69U | -1.71 |
| G42C C53U G93A | -3.13 |
| A18C G69U | -0.162 |
| C70G A103U G120A A121C C123U | -5.54 |
